Measured values from US20240207312A1.

What was measured:
[1] = molecular target: T-cell surface glycoprotein CD4 [Homo sapiens] (Homo sapiens) (UniProt P01730); assay: cell-based or functional assay
[2] = molecular target: human T-cell receptor beta chain with variable region Vbeta 7.1 (H. sapiens rearranged TCR Vbeta 7.1) (H. sapiens); assay: cell-based or functional assay
Chain of human T-cell receptor beta chain with variable region Vbeta 7.1 (H. sapiens rearranged TCR Vbeta 7.1) (H. sapiens) (A0A577 whole entry, form in doubt): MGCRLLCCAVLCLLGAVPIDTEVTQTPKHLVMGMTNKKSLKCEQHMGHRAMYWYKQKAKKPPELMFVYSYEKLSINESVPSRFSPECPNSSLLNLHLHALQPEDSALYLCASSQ

For “CART20 anti-CD20 chimeric antigen receptor (scFv of anti-CD20 monoclonal antibody Leu16 in the third-generation CAR backbone), expressed on transduced human T cells”, the CD4-positive cells remaining in the control culture (flow cytometry) [1] was 45% and the TCR Vβ7.1-positive cells remaining in the control culture (flow cytometry) [2] was 1.2%.
